In the supplement of paper PMC10567573 one finds protein stability index data, which are given here for 53 sequences.

± gives the standard deviation.

The data set can be described thus: protein stability index of a GFP-peptide fusion (GPS, HEK-293T) (PSI 1-6); higher = more stable. The note with it: c terminus: a fixed tail appended.
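Note: 24-mer peptide tiles fused after GFP, lentivirally expressed, FACS-sorted into six equal bins by GFP/DsRed ratio, decoded by Illumina sequencing, PSI is the read-weighted mean bin number.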

CHRRYSCAHCRAHLANHDDLISKS [YPEL3]: the protein stability index is 2.44 ± 0.46 (treatment: DMSO) and 2.81 ± 0.4 (treatment: MLN4924 1 uM, 8 h).
CHSHTVVQDYSYFFFLRMDENYNL [CCDC3]: the protein stability index is, setting by setting: (treatment: DMSO) 2.49 ± 0.68; (treatment: MLN4924 1 uM, 8 h) 2.4 ± 0.63.
For the sequence CIMDDAINILQNEKSHQVLAQLLD [INTS4], the protein stability index worked out at 2.18 ± 0.21 (treatment: DMSO) and 2.37 ± 0.23 (treatment: MLN4924 1 uM, 8 h).
With CIQQILEAVLHCHQMGVVHRDLKP [CAMK2A], the protein stability index turned out to be 2.75 ± 0.32 (treatment: DMSO) and 3.03 ± 0.36 (treatment: MLN4924 1 uM, 8 h).
In the case of CKICGRTFFPVALKKHGPICQKTA [ZC2HC1A], the protein stability index came out at 3.58 ± 0.063 (treatment: DMSO) and 3.92 ± 0.38 (treatment: MLN4924 1 uM, 8 h).
Turning to CLAHLGEKVSQELKEPLHKALQML [BCL2L13], the protein stability index reads like this: (treatment: DMSO) 2.26 ± 0.28; (treatment: MLN4924 1 uM, 8 h) 2.16 ± 0.26.
With CPPPPGPAAAPEGDWARLLEQMGA [ZBED3], the protein stability index runs as follows: (treatment: DMSO) 3.53 ± 0.18; (treatment: MLN4924 1 uM, 8 h) 3.58 ± 0.84.
Take CQVFPERLAQGNPQQGFFSSFFTC [ATP23]: the protein stability index by setting is: (treatment: DMSO) 2.07 ± 0.29; (treatment: MLN4924 1 uM, 8 h) 2.14 ± 0.33.
Regarding CRADHGLLLERAAAGSPRSPGPLP [ISL2], the protein stability index by setting is: (treatment: DMSO) 3.47 ± 0.46; (treatment: MLN4924 1 uM, 8 h) 3.1 ± 0.43.
Turning to CRGHTLERSVFSERTEESSAVQYF [CARM1], the protein stability index is 2.81 ± 0.34 (treatment: DMSO) and 2.92 ± 0.5 (treatment: MLN4924 1 uM, 8 h).
Taken in the same sequence, the figures for CRGNQHDVPVIPLDVVDNQTEKLD [CASP6] were 5.05 ± 0.26 and 5.03 ± 0.13.
For CRNGSSIQIAFEEVPQLPPRASIS [C2CD2L], the protein stability index was 3.03 ± 0.34 (treatment: DMSO) and 2.98 ± 0.16 (treatment: MLN4924 1 uM, 8 h).
With CSMSATFTLNFFRSGIQFGSWGSF [CLCN6], the protein stability index reads like this: (treatment: DMSO) 3.01 ± 0.57; (treatment: MLN4924 1 uM, 8 h) 2.75 ± 0.14.
For CTEGPIDLVFVIDGSKSLGEENFE [MATN2], in that order: 2.72 ± 0.29 and 2.52 ± 0.59.
CTGLKKAHRTEFYRNLTHNPPSDF [STK38L] gave a protein stability index (treatment: DMSO) of 2.85 ± 0.09 and a protein stability index (treatment: MLN4924 1 uM, 8 h) of 2.87 ± 0.28.
Turning to CTRDCMSFSVLNWDQVSRLHEVLT [TENT5C], the protein stability index runs as follows: (treatment: DMSO) 2.13 ± 0.35; (treatment: MLN4924 1 uM, 8 h) 2.37 ± 0.23.
Regarding CVTLMQGHEGSVSSCHFARDSSFL [WDR88], the protein stability index (treatment: DMSO) worked out at 2.28 ± 0.57 and the protein stability index (treatment: MLN4924 1 uM, 8 h) was found to be 2.39 ± 0.13.
As to CYRSQDYGGRSVAPQNSFSAKLAP [KCNK9], the protein stability index by setting is: (treatment: DMSO) 3.04 ± 0.092; (treatment: MLN4924 1 uM, 8 h) 3.19 ± 0.36.
Taken in the same sequence, the figures for DAAVVRPGFLSTAEEETLSRELEP [ALKBH7] were 5.53 ± 0.063 and 5.42 ± 0.17.
For DAAYRKALDLAREFLPQGPVAMRV [AUH], in that order: 2.25 ± 0.64 and 2.19 ± 0.33.
DAGGIPRTAQSEETRVWHRRDGKW [CAMK2A]: the protein stability index is 4.92 ± 0.13 (treatment: DMSO) and 4.86 ± 0.1 (treatment: MLN4924 1 uM, 8 h).
Take DCLLCFPETLPESSLFSVEANSSN [C8orf76]: the protein stability index is, setting by setting: (treatment: DMSO) 3.58 ± 0.29; (treatment: MLN4924 1 uM, 8 h) 3.58 ± 0.6.
Take DDLTVVDAASLRRQIIKLNRRLQL [MFF]: the protein stability index by setting is: (treatment: DMSO) 2.49 ± 0.27; (treatment: MLN4924 1 uM, 8 h) 2.9 ± 0.65.
Taken in the same sequence, the figures for DDRNTACHHGLVADSLQASMEKDA [DLC1] were 5.15 ± 0.13 and 5.16 ± 0.16.
For DDYPSRGYSDRDGYGRDRDYSDHP [RBMX], the protein stability index (treatment: DMSO) was found to be 4.85 ± 0.3 and the protein stability index (treatment: MLN4924 1 uM, 8 h) was found to be 4.87 ± 0.22.
On to DEKYSIEPSWECKFDHIEVRDGPF [NETO1], for which the protein stability index amounted to 3.78 ± 0.35 (treatment: DMSO) and 3.9 ± 0.17 (treatment: MLN4924 1 uM, 8 h).
Taken in the same sequence, the figures for DETHPYTVTSVSCCHGNTLLAVRS [NEK8] were 2.47 ± 0.12 and 2.67 ± 0.076.
Taken in the same sequence, the figures for DEVQIGPETVMTTLYTAKKYAVPA [BTBD1] were 3.67 ± 0.32 and 3.55 ± 0.41.
In the case of DFLIHPPERSDLTLYLIVALATVS [PCDHGC5], the protein stability index amounted to 2.75 ± 0.41 (treatment: DMSO) and 2.44 ± 0.25 (treatment: MLN4924 1 uM, 8 h).
Taken in the same sequence, the figures for DGASVNENHEIYMKDSMSAAEVGT [EPB41L3] were 5.31 ± 0.28 and 5.34 ± 0.32.
For the sequence DGENVFTGQSKIYSYMSPNKCSGM [KMT5A], the protein stability index is, setting by setting: (treatment: DMSO) 3.3 ± 0.29; (treatment: MLN4924 1 uM, 8 h) 3.3 ± 0.14.
The sequence DGKGKINKEYIKRLLMSQADKMTA [MYL5] displayed a protein stability index (treatment: DMSO) of 2.97 ± 0.25 and a protein stability index (treatment: MLN4924 1 uM, 8 h) of 3.13 ± 0.33.
On to DGKLSFEEFKAYFADGVLSGEELH [NECAB1], for which the protein stability index reads like this: (treatment: DMSO) 4.23 ± 0.28; (treatment: MLN4924 1 uM, 8 h) 4.14 ± 0.37.
For the sequence DGTGASQEPPTTDSQEAQSPGHSS [TOR1AIP2], the protein stability index reads like this: (treatment: DMSO) 5.56 ± 0.26; (treatment: MLN4924 1 uM, 8 h) 5.54 ± 0.24.
DHEDNDKMNDSEGMDPERLKAFNM [NOL4L]: the protein stability index came to 5.46 ± 0.12 (treatment: DMSO) and 5.34 ± 0.34 (treatment: MLN4924 1 uM, 8 h).
Turning to DIVLMAQALEKIFLQKVAQMPQEE [BRD3], the protein stability index worked out at 2.36 ± 1.6 (treatment: DMSO) and 3 ± 1 (treatment: MLN4924 1 uM, 8 h).
As to DIVWGKIHGFPWWPARVLDISLGQ [PWWP2B], the protein stability index is 2.7 ± 0.86 (treatment: DMSO) and 2.38 ± 0.42 (treatment: MLN4924 1 uM, 8 h).
Taken in the same sequence, the figures for DKLRALKSQRQPRTSPSCAFRSDD [CDC14A] were 4.14 ± 0.23 and 4.15 ± 0.11.
For the sequence DKNVQVVELPIVDSLHPRPPYLPL [FUT8], the protein stability index is, setting by setting: (treatment: DMSO) 3.2 ± 0.29; (treatment: MLN4924 1 uM, 8 h) 3.35 ± 0.28.
As to DLLTFVQNLCKGLSQPTTNLVAGC [NEUROD6], the protein stability index was found to be 3 ± 1 (treatment: DMSO) and 2.47 ± 0.33 (treatment: MLN4924 1 uM, 8 h).
Take DLYALKSVKIPVRNHGILMETHKE [LYSMD4]: the protein stability index worked out at 3.02 ± 0.14 (treatment: DMSO) and 3.25 ± 0.12 (treatment: MLN4924 1 uM, 8 h).
Consider DMCMKVPDDPEHLAARRQWRDECL [CRYL1], for which the protein stability index was determined as 4.47 ± 0.22 (treatment: DMSO) and 4.56 ± 0.2 (treatment: MLN4924 1 uM, 8 h).
Consider DMLLEKLPQVAEEISGPLTSANKI [FLOT1], for which the protein stability index by setting is: (treatment: DMSO) 4.15 ± 0.19; (treatment: MLN4924 1 uM, 8 h) 4.43 ± 0.16.
On to DMSIGGNLSKTQNMERFGEDNLED [CDC14A], for which the protein stability index by setting is: (treatment: DMSO) 5.27 ± 0.14; (treatment: MLN4924 1 uM, 8 h) 5.34 ± 0.21.
Regarding DMVEFLLEQCSASIEVGGSVNFDG [FEM1C], the protein stability index was determined as 2.17 ± 0.76 (treatment: DMSO) and 2.4 ± 0.24 (treatment: MLN4924 1 uM, 8 h).
Turning to DPGADSEKSTVVEGGEVRFNGKGK [DLX1], the protein stability index is, setting by setting: (treatment: DMSO) 5.51 ± 0.22; (treatment: MLN4924 1 uM, 8 h) 5.58 ± 0.18.
Consider DPIIDSWEVVTSMGTQRCDAGVCV [KLHL12], for which the protein stability index (treatment: DMSO) amounted to 3 ± 0.21 and the protein stability index (treatment: MLN4924 1 uM, 8 h) came to 2.95 ± 0.39.
In turn, DPQILQMLKEEHQIILENQKNFGL [RAD54B] came in with a protein stability index (treatment: DMSO) of 3.25 ± 0.3 and a protein stability index (treatment: MLN4924 1 uM, 8 h) of 3.812 ± 0.008.
Taken in the same sequence, the figures for DQNRDGFIDKEDLKDTYASLGKTN [MYL5] were 5.12 ± 0.092 and 5.2 ± 0.14.
Turning to DSAQFTKALAIILHLLYLLEKVEC [FEM1A], the protein stability index runs as follows: (treatment: DMSO) 2.22 ± 0.33; (treatment: MLN4924 1 uM, 8 h) 2.11 ± 0.34.
For DSEQVPQALRRLRPRTRKVKSVSP [NCF4], in that order: 5.21 ± 0.25 and 5.11 ± 0.24.
As for DSKSLKTHQTQPGIRRARDKALSG [NET1], the protein stability index is, setting by setting: (treatment: DMSO) 4.63 ± 0.16; (treatment: MLN4924 1 uM, 8 h) 4.7 ± 0.18.
In the case of DSPSKEEVFRFVQSCARAVVPSYI [CPOX], the protein stability index runs as follows: (treatment: DMSO) 2.48 ± 0.55; (treatment: MLN4924 1 uM, 8 h) 2.5 ± 0.32.
